# Experimental data taken from PMC2481239 (Nature structural & molecular biology, 2008).
# T1: Rpn1 (S. cerevisiae, UniProt P38764 1-993)
# T1 sequence: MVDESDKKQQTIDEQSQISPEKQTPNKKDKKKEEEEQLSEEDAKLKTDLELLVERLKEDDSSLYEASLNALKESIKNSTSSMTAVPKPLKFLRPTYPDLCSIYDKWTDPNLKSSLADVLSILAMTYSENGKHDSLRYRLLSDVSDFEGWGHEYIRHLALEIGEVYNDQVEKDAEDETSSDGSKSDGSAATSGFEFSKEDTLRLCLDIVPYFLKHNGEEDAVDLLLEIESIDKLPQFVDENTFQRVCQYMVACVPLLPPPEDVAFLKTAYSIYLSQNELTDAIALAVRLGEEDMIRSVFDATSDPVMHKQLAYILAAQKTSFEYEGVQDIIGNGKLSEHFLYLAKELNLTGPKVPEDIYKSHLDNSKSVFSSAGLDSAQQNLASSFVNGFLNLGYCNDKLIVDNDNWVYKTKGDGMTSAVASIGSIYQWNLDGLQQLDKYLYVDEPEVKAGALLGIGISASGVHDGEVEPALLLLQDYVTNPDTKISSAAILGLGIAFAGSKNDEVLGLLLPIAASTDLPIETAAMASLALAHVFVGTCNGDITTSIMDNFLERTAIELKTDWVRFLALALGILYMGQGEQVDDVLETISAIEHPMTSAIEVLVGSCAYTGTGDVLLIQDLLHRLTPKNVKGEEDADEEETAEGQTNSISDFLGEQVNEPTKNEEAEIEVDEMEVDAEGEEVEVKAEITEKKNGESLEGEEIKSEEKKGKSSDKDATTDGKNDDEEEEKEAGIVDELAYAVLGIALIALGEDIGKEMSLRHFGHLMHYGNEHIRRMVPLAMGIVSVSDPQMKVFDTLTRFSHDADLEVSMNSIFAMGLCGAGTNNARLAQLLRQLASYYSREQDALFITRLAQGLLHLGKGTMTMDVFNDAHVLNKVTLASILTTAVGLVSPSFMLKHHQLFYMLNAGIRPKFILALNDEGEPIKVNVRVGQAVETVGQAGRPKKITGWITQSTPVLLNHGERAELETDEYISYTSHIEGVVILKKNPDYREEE
# B1: Rpn2 (natural protein)
# chain: MSLTTAAPLLALLRENQDSVKTYALESINNVVDQLWSEISNELPDIEALYDDDTFSDREMAALIASKVYYNLGEYESAVKYALAAKDRFDIDEKSQFVETIVSKSIEMYVQEASKQYTKDEQFYTKDIIDPKLTSIFERMIEKCLKASELKLALGIALEGYRLDIIESALKSKLDQDSTSENVKIINYLLTLAITTVTNSKFRSSILRKSFDFLMNMPNCDYLTLNKVVVNLNDAGLALQLFKKLKEENDEGLSAQIAFDLVSSASQQLLEILVTELTAQGYDPALLNILSGLPTCDYYNTFLLNNKNIDIGLLNKSKSSLDGKFSLFHTAVSVANGFMHAGTTDNSFIKANLPWLGKAQNWAKFTATASLGVIHKGNLLEGKKVMAPYLPGSRASSRFIKGGSLYGLGLIYAGFGRDTTDYLKNIIVENSGTSGDEDVDVLLHGASLGIGLAAMGSANIEVYEALKEVLYNDSATSGEAAALGMGLCMLGTGKPEAIHDMFTYSQETQHGNITRGLAVGLALINYGRQELADDLITKMLASDESLLRYGGAFTIALAYAGTGNNSAVKRLLHVAVSDSNDDVRRAAVIALGFVLLRDYTTVPRIVQLLSKSHNAHVRCGTAFALGIACAGKGLQSAIDVLDPLTKDPVDFVRQAAMIALSMILIQQTEKLNPQVADINKNFLSVITNKHQEGLAKFGACVAQGIMNAGGRNVTIQLENADTGTLDTKSVVGLVMFSQFWYWFPLAHFLSLSFTPTTVIGIRGSDQAIPKFQMNCYAKEDAFSYPRMYEEASGKEVEKVATAVLSTTARAKARAKKTKKEKGPNEEEKKKEHEEKEKERETNKKGIKETKENDEEFYKNKYSSKPYKVDNMTRILPQQSRYISFIKDDRFVPVRKFKGNNGVVVLRDREPKEPVALIETVRQMKDVNAPLPTPFKVDDNVDFPSA
# B2: Rad23 (natural protein)
# chain: MVSLTFKNFKKEKVPLDLEPSNTILETKTKLAQSISCEESQIKLIYSGKVLQDSKTVSECGLKDGDQVVFMVSQKKSTKTKVTEPPIAPESATTPGRENSTEASPSTDASAAPAATAPEGSQPQEEQTATTERTESASTPGFVVGTERNETIERIMEMGYQREEVERALRAAFNNPDRAVEYLLMGIPENLRQPEPQQQTAAAAEQPSTAATTAEQPAEDDLFAQAAQGGNASSGALGTTGGATDAAQGGPPGSIGLTVEDLLSLRQVVSGNPEALAPLLENISARYPQLREHIMANPEVFVSMLLEAVGDNMQDVMEGADDMVEGEDIEVTGEAAAAGLGQGEGEGSFQVDYTPEDDQAISRLCELGFERDLVIQVYFACDKNEEAAANILFSDHAD
# Legend:
# Rpn1 [1] = biological target: T1, Rpn1; experiment: cross-linking
# Rpn1-Rpn2 unit = Rpn1-Rpn2 unit (S. cerevisiae, UniProt P38764 1-993; P32565 1-945); experiment: atomic force microscopy
# Rpn1 [2] = biological target: T1, Rpn1; experiment: atomic force microscopy
Binder,binding result (Rpn1 [1]),stoichiometry N (Rpn1-Rpn2 unit),stoichiometry N (Rpn1 [2])
B1,binds,,
B2,,1,1
